Reference: patent US7803757B2, “Peptides based on the sequence of human lactoferrin and their use” (PharmaSurgics in Sweden AB, priority 1998, dated 2010)

What was measured:
E. coli O14 = assay: bactericidal activity, incubation with E. coli O14 (Example 3, exp. I and III); type: cell-based
Method: (§1) Human lactoferrin (hLF), peptide 3, and peptide 4, respectively, were incubated with two different strains of E. coli, E. coli O14 (experiment I) and O6K5 (experiment II), in diluted growth medium ( 1/100 BHI—brain heart infusion) for 2 hours. The peptides were also incubated with E. coli O14 in 0.05 mM KCl (pH 7) without any growth medium (experiment III). Different concentrations of the peptides were tested.
(§2) After the incubation, samples were taken for bacterial plating. Serial dilutions of five- and fourfold steps were used in experiments I and II, respectively, and of twofold steps in experiment III.
(§3) The concentrations of the different peptides required for killing 100% (experiments I and II) or 90% (experiment III) of the bacteria are given in table 2.

Candida krusei = assay: fungicidal activity against Candida krusei strains (Example 4); type: cell-based; conditions: Exp. I
Method: (§4) In this example the fungicidal activity of the peptides according to the invention was tested and compared to the fungicidal activity of human lactoferrin. Different concentrations of hLF, peptide 3 and peptide 4 were incubated with different strains of Candida albicans and Candida krusei during 1-2 hours at 37° C. in 0.05 mM KCl at pH 7.0 at two different occasions—experiment I and II, respectively. After incubation samples were taken for plating on Saboroud plates.

E. coli O6K5 [1] = assay: urinary tract infection in mice, bacteria (CFU) in kidney (Example 6); type: in vivo; conditions: Exp II, mouse strain C3H/Tif, 500 μg per mouse orally 30 minutes after instillation, 24 hours
Method: E. coli O6K5 was instilled into the urinary bladder of mice. 30 minutes after instillation the different agents specified in table 5 were administered orally in an amount of 500 μg per mouse and 24 hours after instillation the number of bacteria (CFU) present in bladder and in kidney was determined.
The control group consisted of 10 animals in experiment I and of 23 animals in experiment II. The animals in the control groups were given tap water instead of peptide or hLF.

C. albicans (ATCC 64549) = assay: microbe, parasite or virus in culture; conditions: C. albicans ATCC 64549, 2×10^5 cells/ml, BHI diluted 1/100
Method: In the examples, the minimal microbicidal concentrations (MMC) and minimal inhibitory concentrations (MIC) were determined as follows, unless otherwise specified in the examples. Bacterial or fungal strains were cultured in BHI medium over night at 37° C. A volume of the culture was transferred to a new tube with BHI and incubated for two more hours. Thereafter the cells were spun down and the pellet was suspended in BHI medium diluted 1/100 (1% BHI). The concentration of bacterial or fungal cells was spectrophotometrically determined at 650 nm. The microbial concentrations were also determined by viable counts. Peptides serially diluted in 1% BHI by twofold or tenfold steps were added in triplicate to the wells of a microtiterplate (200 μl per well). The bacterial or fungal cell solutions were added in 10 μl volumes to give a final concentration of approximately 1-5×10^5 cells per ml in the well. The microplate was incubated at 37° C. in a humid chamber for two hours. […] The microplate was incubated for another 20 hours at 37° C. and thereafter analysed spectrophotometrically at 650 nm in a microplate reader (Emax, Molecular Devices, USA). […] The MIC value was defined as the concentration giving no increase in the absorbance value above the background level after 20 hours of incubation. […]

E. coli O6K5 [2] = assay: bactericidal activity, incubation with E. coli O6K5 (Example 3, exp. II); type: cell-based; conditions: Exp. II: 100% killing, E. coli O6K5, 1/100 BHI, 2 hours
Method: as §1, §2, §3

[3] = system: LPS-induced IL-6 response in a monocytic cell line (THP-1); assay: inhibition of LPS-induced IL-6 response in THP-1 cells (Example 5); type: cell-based; conditions: IL-6 response in THP-1 cells, agent added 30 minutes after LPS
Method: In this example an in vitro test was performed to study the anti-inflammatory activity of the peptides according to the invention. More precisely, the inhibitory effect of the peptides according to the invention on the LPS-induced IL-6 response in a monocytic cell line (THP-1) was studied and compared to the effect of human lactoferrin by use of the method described by I. Mattsby-Baltzer et al., Pediatr. Res. 40:257-262, 1996. The IL-6 response in the THP-1 cells was induced by addition of LPS. hLF, peptide 3 and peptide 4, respectively, were added 30 minutes after LPS.

Candida albicans [4] = assay: fungicidal activity against Candida albicans strains (Example 4); type: cell-based
Method: as §4

Candida albicans [5] = assay: fungicidal activity against Candida albicans, comparison with EP-A-0 629 347 peptides (Example 7); type: cell-based; conditions: C. albicans, I (tenfold steps)
Method: In this example an in vitro test was performed to compare the bactericidal and fungicidal activity of the peptides according to the invention with peptides described in EP-A-0 629 347. The peptide according to the invention used was peptide 4, and the peptides according to EP-A-0 629 347 called Morinaga 10, Morinaga 11, Morinaga 12, and Morinaga 13.
The peptides were incubated with E. coli O14 and Candida albicans. Two concentrations of C. albicans yeast cells were tested, 5·10^6 and 5·10^3 per ml. Different concentrations of the peptides were tested.
After the incubation, samples were taken for bacterial plating. Serial dilutions of tenfold steps were used in the experiments marked with I in table 5 and of twofold steps in the experiments marked with II.

B1: human lactoferrin (protein, UniProt P02788 20-710, looked up)
Lactotransferrin: GRRRSVQWCAVSQPEATKCFQWQRNMRKVRGPPVSCIKRDSPIQCIQAIAENRADAVTLDGGFIYEAGLAPYKLRPVAAEVYGTERQPRTHYYAVAVVKKGGSFQLNELQGLKSCHTGLRRTAGWNVPIGTLRPFLNWTGPPEPIEAAVARFFSASCVPGADKGQFPNLCRLCAGTGENKCAFSSQEPYFSYSGAFKCLRDGAGDVAFIRESTVFEDLSDEAERDEYELLCPDNTRKPVDKFKDCHLARVPSHAVVARSVNGKEDAIWNLLRQAQEKFGKDKSPKFQLFGSPSGQKDLLFKDSAIGFSRVPPRIDSGLYLGSGYFTAIQNLRKSEEEVAARRARVVWCAVGEQELRKCNQWSGLSEGSVTCSSASTTEDCIALVLKGEADAMSLDGGYVYTAGKCGLVPVLAENYKSQQSSDPDPNCVDRPVEGYLAVAVVRRSDTSLTWNSVKGKKSCHTAVDRTAGWNIPMGLLFNQTGSCKFDEYFSQSCAPGSDPRSNLCALCIGDEQGENKCVPNSNERYYGYTGAFRCLAENAGDVAFVKDVTVLQNTDGNNNEAWAKDLKLADFALLCLDGKRKPVTEARSCHLAMAPNHAVVSRMDKVERLKQVLLHQQAKFGRNGSDCPDKFCLFQSETKNLLFNDNTECLARLHGKTTYEKYLGPQYVAGITNLKKCSTSPLLEACEFLRK
Question: B1 was tested. Which “Concentration of agent for 100%/90% killing” value (E. coli O14; Exp. I: 100% killing, E. coli O14, 1/100 BHI, 2 hours) did it give?
Answer: 400 µg/mL

Question: And the “Concentration of agent for 100%/90% killing” value (E. coli O14; Exp. III: 90% killing, E. coli O14, 0.05 mM KCl (pH 7) without growth medium)?
Answer: >4000 µg/mL

Question: What about the “Concentration of agent for 99% killing” value (Candida krusei; C. krusei CCUG 969, 0.05 mM KCl pH 7.0) of the same molecule?
Answer: 25 µg/mL

Question: What about the “Concentration of agent for 99% killing” value (Candida krusei; C. krusei CCUG 35849, 0.05 mM KCl pH 7.0) of the same molecule?
Answer: 12.5 µg/mL

Question: And the “Statistical comparison of treatment group with control group of the number of bacteria, CFU, present in kidney (p, Mann-Whitney)” value (E. coli O6K5 [1])?
Answer: p = 0.006

Question: And the MIC (C. albicans (ATCC 64549))?
Answer: 1000 µg/mL

Question: What about the MMC99% (C. albicans (ATCC 64549)) of the same molecule?
Answer: >1000 µg/mL

Question: And the “Concentration of agent for 100%/90% killing” value (E. coli O6K5 [2])?
Answer: 2000 µg/mL

Question: And the “% inhibition of LPS response” value [3]?
Answer: 15%

Question: And the “Concentration of agent for 99% killing” value (Candida albicans [4]; Exp. I, C. albicans ATCC 64549, 0.05 mM KCl pH 7.0, 1-2 hours 37° C.)?
Answer: >50 µg/mL

Question: What about the “Concentration of agent for 99% killing” value (Candida albicans [4]; Exp. I, C. albicans CCUG 90028, 0.05 mM KCl pH 7.0) of the same molecule?
Answer: >50 µg/mL

Question: And the “Concentration of agent for 99% killing” value (Candida albicans [4]; Exp. II, C. albicans ATCC 64549, 0.05 mM KCl pH 7.0)?
Answer: >200 µg/mL

Question: What about the “Concentration of agent for 99% killing” value (Candida albicans [4]; Exp. II, C. albicans CCUG 599, 0.05 mM KCl pH 7.0) of the same molecule?
Answer: >200 µg/mL

Question: What about the “Concentration of agent for 99% killing” value (Candida albicans [4]; Exp. II, C. albicans CCUG 1759, 0.05 mM KCl pH 7.0) of the same molecule?
Answer: >200 µg/mL

Question: And the “Concentration of agent for 100% killing” value (Candida albicans [5]; 5 · 10^3 yeast cells per ml)?
Answer: >2000 µg/mL

Question: What about the “Concentration of agent for 100% killing” value (Candida albicans [5]; 5 · 10^6 yeast cells per ml) of the same molecule?
Answer: >1000 µg/mL
